Data as given in the supplement of paper PMC10567573.

B1: JUNB (parent)
chain: FVKALDDLHKMNHVTPPNVSLGAT

Variants of: B1
Assay: protein stability index of a GFP-peptide fusion (GPS, HEK-293T) (PSI 1-6); higher = more stable
Conditions: c terminus: a fixed tail appended
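Note: lentivirally expressed fusions sorted by FACS into six bins by GFP to DsRed ratio, PSI derived from sequencing read proportions per bin multiplied by bin number.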

Protein stability index of substitutions, site by site:
P17: M 2.35; F 2.56; K 2.64; T 1.62; V 1.71; R 1.44; G 1.56; W 3.22; H 1.89; I 1.81; A 1.89; C 2.08; Y 3.73; L 1.37; Q 2.21; E 1.48; S 1.83; D 1.97; N 1.8
F1: R 4.38; Y 1.54; W 2.51; T 4.37; S 4.09; V 3.59; Q 3.52
N12: C 2.34; Y 3.14; T 1.8; V 1.67; M 1.65; K 1.55; L 3.23; Q 1.58; F 1.74; E 2.01; A 2.14; R 1.56; P 2.08; S 2.12; G 2.49; D 1.61; H 2.57; I 1.67
N18: Y 1.73; G 1.73; I 1.4; R 3.67; D 1.73; E 1.62; Q 2.49; S 2.61; C 1.69; V 1.63; A 1.32; L 1.93; T 1.47; M 2.5; K 1.75; F 2.41; W 2.86; H 1.62
L5: E 3.33; R 1.62; F 2.1; D 2.72; V 1.86; N 2.38; H 1.9; W 3.57; P 2.2; Q 2.08; I 1.75; A 2.23; M 1.93; G 1.99; K 2.27; Y 2.82; C 1.87; S 1.72; T 2.22
H13: Y 1.6; M 2.06; N 1.54; T 2.75; V 1.75; D 1.92; I 2.22; E 3.33; A 1.92; F 2.17; L 2.56; G 1.91; S 1.2; K 1.74; W 2.66; P 1.75; Q 2.08; C 1.67; R 2.4
V2: Y 2.51; H 3.07; D 4.22; T 3.33; R 3.54; E 3.98; P 3.05; Q 3.18; C 2.96; F 2.03; K 3.07; L 2.79; G 3.5; S 4.07; I 2.22; A 2.96; M 2.7; W 2.47; N 4.52
D7: H 3.12; G 1.98; A 1.69; P 3.02; S 1.47; N 1.96; T 2.16; C 2.15; K 1.8; F 2.71; R 1.93; Y 2.2; W 2.24; I 2.48; M 2.62; E 1.57; V 2.27; Q 1.7
P16: A 1.94; N 1.14; V 1.86; R 1.6; L 1.53; E 2.55; W 1.92; G 1.9; D 1.76; Q 2.11; K 1.79; C 2.48; Y 1.64; T 2.34; I 1.58; H 1.81; M 1.68; F 2.55; S 1.78
T15: E 1.45; S 1.92; K 2.09; V 1.6; Q 2.06; D 1.9; I 1.59; W 1.51; M 2.3; H 2.12; A 2.79; L 2.03; G 2.04; C 2.06; F 1.69; N 1.84; P 2.18; R 2.24; Y 1.67
A4: F 1.15; L 2.69; M 1.58; G 2.68; C 1.63; N 1.66; H 2.03; D 2.24; R 1.61; V 1.77; I 2.12; W 3.85; T 2.34; Y 2.85; E 2.13; Q 1.94; P 2.6; K 1.58; S 2.03
D6: I 2.58; E 1.97; A 2; V 2.59; P 2.08; Q 1.34; G 2.07; R 1.59; F 3.31; K 2.39; W 3.45; C 4.16; H 1.57; S 1.46; T 1.88; Y 4.17; M 2.54; N 2.83
V19: C 2.11; D 1.94; E 1.67; H 2.41; G 1.49; A 1.77; K 1.39; I 1.82; F 1.43
L8: V 1.74; N 1.93; P 2.31; Q 1.68; S 2.39; D 1.86; Y 1.52; I 2.64; E 2.31; C 1.77; A 1.51; F 2.59; G 2.26; T 2.46; K 2.3; R 1.89; H 2.26; M 1.62
K10: D 2.22; N 2.07; Q 1.95; G 1.5; V 1.48; P 2.61; L 1.72; S 2.11; T 2.21; E 2.98; F 1.6; H 2.13; M 1.72; C 1.64; I 2.35; Y 2.63; R 2.77; W 4.58; A 2.79
H9: T 2.15; W 4.16; Y 1.54; A 1.86; N 1.72; E 2.08; K 1.9; C 2.04; D 2.05; S 2.57; P 1.69; F 3.03; Q 1.34; M 2.64; I 1.29; G 1.97; R 1.66; V 1.79; L 1.44
M11: L 1.7; R 2.28; A 2.29; F 2.6; N 2.01; E 3.21; Q 2.63; K 1.83; D 2.29; C 2.31; S 2.11; Y 1.29; P 1.4; I 2.26; T 2.06; W 2.23; H 1.94; G 1.61; V 1.7
V14: F 1.8; L 1.88; N 1.89; R 1.84; A 2.24; S 1.43; P 1.46; D 1.87; T 1.82; W 2.7; I 1.82; E 1.93; K 1.53; Q 2.26; M 1.51; G 2.37; C 2.3; Y 1.19; H 1.78
K3: G 2.12; C 3.29; F 3.15; Y 1.73; N 1.86; E 2.44; L 1.66; W 2.47; D 2.23; T 2.02; A 1.69; Q 1.94; M 1.74; P 2.97; V 1.96; R 1.76; I 1.98; H 2.23; S 2.72
